# Measurements as given in patent US20250361274A1, “PEPTIDE AND PEPTIDE-CONTAINING AGENT” (PEPTIDREAM INC., priority 2022, published 2025).
# Numbered stars: 1 amine (or outer) side, 2 acyl side, 3 side chain; on linkers, the order of the positions; unused ones are H or OH. Bridge positions count the residues as written; N and C are the ends. Square brackets hold non-standard residues; d marks the D form. Ends that are not written are not given here. * marks the point of attachment. KCOpipzaa = N6-(4-(carboxymethyl)piperazine-1-carbonyl)-L-lysine, O=C(NCCCC[C@H](N[*:1])C(=O)[*:2])N1CCN(CC(=O)[*:3])CC1; X8 = 4‑(carboxymethyl)piperazine‑1‑carbonyl, O=C(O)CN1CCN(C(=O)*)CC1; Phe(4-COOH) = N[C@@H](Cc1ccc(C(=O)O)cc1)C(=O)O; Bip = N[C@@H](Cc1ccc(-c2ccccc2)cc1)C(=O)O; 4Pal = N[C@@H](Cc1ccncc1)C(=O)O; Tic = O=C(O)[C@@H]1Cc2ccccc2CN1; βAla = NCCC(=O)O
# Assays:
# BMP4 = molecular target: T1, BMP4 (Homo sapiens, UniProt P12644); assay: BMP4 signal transduction inhibitory activity: SMAD1 phosphorylation by BMP4 stimulus, AlphaLISA SureFire, A549 cells; assay type: cell-based; conditions: A549 cells
# T1 sequence (P12644 293-408): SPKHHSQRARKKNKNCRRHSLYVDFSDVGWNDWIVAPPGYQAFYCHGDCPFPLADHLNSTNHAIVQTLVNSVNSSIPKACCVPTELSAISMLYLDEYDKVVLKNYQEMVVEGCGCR
# Description: In the present Example, a BMP4 signal transduction inhibitory activity of each peptide consisting of an amino acid sequence set forth in any of SEQ ID NOs: 5 to 240 and 243 to 421 synthesized in Example 10 was verified by phosphorylation of SMAD1 caused by BMP4 stimulus. A549 cells were cultured in MEM (Thermo Fisher Scientific) containing 10% FBS (Thermo Fisher Scientific), 1×Non-essential amino acids (Thermo Fisher Scientific), and 50 μg/mL Gentamicin. After TrypLE (Gibco) was used to peel the cells, seeding was performed in a 96-well plate for adhesion cells so that the number of cells would be 20,000 per well, followed by culturing for 48 hours. After the cells were cultured as described above, the culture medium was replaced with a peptide solution or recombinant Human Noggin Protein (R&D) solution as a positive control diluted to various concentrations in a nutrition-starved culture medium containing 0.1% BSA (Sigma) instead of FBS Thirty minutes after culturing, […], to stimulate it for 60 minutes. The culture medium was removed and the cells were lysed with Lysis Buffer provided with AlphaLISA (registered trademark) SureFire (registered trademark) Ultra SMAD1 (p-[…]/465) Assay kit (PerkinElmer). According to the protocol of the kit, a signal was detected using SpectraMax (registered trademark) Paradigm (registered trademark) multimode microplate reader (Molecular Devices). The obtained signal was analysed using GraphPad Prism (GraphPad Software). The % inhibition was calculated by considering non-stimulation as 100% inhibition and BMP stimulation only as 0% inhibition. Regarding SEQ ID NOs: 5 to 187, the concentrations of the peptides synthesized in the same manner as in Example 2 (shown as 2 in the row of Synthesis) were 0.02 nM, 0.2 nM, and 2 nM, and the concentrations of the peptides synthesized in the same manner as in Example 1 (shown as 1 in the row of Synthesis) were 0.2 nM, 2 nM, and 20 nM. The evaluation results were based on the results of evaluation using the peptides synthesized in the same manner as in Example 2. […] Regarding SEQ ID NOs: 243 to 321, the test was performed at the concentrations described in Table 6. […] Regarding SEQ ID NOs: 322 to 421, the test was performed at the concentrations described in Table 7. […] The evaluation tests of the signal transduction inhibitory activities of SEQ ID NOs: 87, 177, and 181 are as follows. Specifically, the inhibitory activity of BMP4 was evaluated in the same manner as in Example 11 that used A549 cells. Eight concentrations of the peptides were used at a common ratio of 1/3 starting from 2 nM. The inhibitory activity of BMP7 was evaluated in the same manner as in Example 12. Eight concentrations of the peptides were used at a common ratio of 1/3 starting from 100 nM. Note that recombinant Human Noggin Protein (R&D) as a positive control was used at the same concentration as that of the peptide. […] The inhibitory activity of BMP7 was evaluated using eight concentrations of the peptides at a common ratio of 1/3 starting from 1,000 nM in the same manner as in Example 12.
# BMP7 = molecular target: T2, BMP7 (Homo sapiens, UniProt P18075); assay: BMP7 signal transduction inhibitory activity: SMAD1 phosphorylation by BMP7 stimulus, A549 cells; assay type: cell-based; conditions: A549 cells
# T2 sequence (P18075 293-431): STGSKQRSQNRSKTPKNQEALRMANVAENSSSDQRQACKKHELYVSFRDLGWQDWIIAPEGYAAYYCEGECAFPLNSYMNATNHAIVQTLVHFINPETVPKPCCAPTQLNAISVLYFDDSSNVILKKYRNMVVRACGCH
# Description: In the present Example, BMP7 signal transduction inhibitory activity of each peptide consisting of an amino acid sequence set forth in any of SEQ ID NOs: 5 to 240 and 243 to 421 synthesized in Example 10 was verified by phosphorylation of SMAD1 caused by BMP7 stimulus. The evaluation was performed using 10 nM of BMP7 instead of BMP 4. Regarding SEQ ID NOs: 5 to 240, the concentrations of the peptides synthesized in the same manner as in Example 2 (shown as 2 in the row of Synthesis) were 1 nM, 10 nM, and 100 nM, and the concentrations of the peptides synthesized in the same manner as in Example 1 (shown as 1 in the row of Synthesis) were 10 nM, 100 nM, and 1,000 nM, similarly with Example 11. […] Regarding SEQ ID NOs: 243 to 273 and SEQ ID NOs: 299 to 321, the test was performed at the concentrations (10, 100, 1,000 nM) described in Table 6. […] Regarding SEQ ID NOs: 274 to 298, the test was performed at the concentrations (100, 300, 1,000 nM) described in Table 6. […] Regarding SEQ ID NOs: 322 to 370 and SEQ ID NOs: 393 to 421, the test was performed at the concentrations (1, 10, 100 nM). […] Regarding SEQ ID NOs: 371 to 391, the test was performed at the concentrations (10, 30, 90 nM). […] The evaluation tests of the signal transduction inhibitory activities of SEQ ID NOs: 87, 177, and 181 are as follows. Specifically, the inhibitory activity of BMP4 was evaluated in the same manner as in Example 11 that used A549 cells. Eight concentrations of the peptides were used at a common ratio of 1/3 starting from 2 nM. The inhibitory activity of BMP7 was evaluated in the same manner as in Example 12. Eight concentrations of the peptides were used at a common ratio of 1/3 starting from 100 nM. Note that recombinant Human Noggin Protein (R&D) as a positive control was used at the same concentration as that of the peptide. […] The inhibitory activity of BMP7 was evaluated using eight concentrations of the peptides at a common ratio of 1/3 starting from 1,000 nM in the same manner as in Example 12.
# [1] = SMAD1 phosphorylation, peptides of Synthesis 2, peptide 0.02, 0.2, 2 nM
# [2] = 10 nM BMP7, peptides of Synthesis 2, peptide 1, 10, 100 nM
# [3] = inhibition of SMAD1 phosphorylation by BMP4 stimulus, AlphaLISA, class by peptide concentration zone
# [4] = inhibition of SMAD1 phosphorylation by BMP7 stimulus, AlphaLISA, class by peptide concentration zone
Substance,aLISA BMP4 (BMP4; [1]),aLISA BMP7 (BMP7; [2]),aLISA BMP4 (BMP4; [3]),aLISA BMP7 (BMP7; [4])
36 ({CH2CO}-AKVYV[KCOpipzaa]K[Bip]PYP[Bip]Y[Phe(4-COOH)][Phe(4-COOH)]SCG-NH2; thioether N-17; not fully specified) [compound 36],A (showed an inhibitory activity of 50% or more in a zone to which the peptide was added to in an amount of 0.2 nM),ND (the inhibitory activity was less than 30% at the maximum concentration evaluated),,
37 ({CH2CO}-AK(Ac)VYVDK[Bip]PYP[Bip]Y[Phe(4-COOH)][Phe(4-COOH)]SCG-NH2; thioether N-17; not fully specified) [compound 37],A (showed an inhibitory activity of 50% or more in a zone to which the peptide was added to in an amount of 0.2 nM),ND (the inhibitory activity was less than 30% at the maximum concentration evaluated),,
38 ({CH2CO}-A[KCOpipzaa]VYVDK[Bip]PYP[Bip]Y[Phe(4-COOH)][Phe(4-COOH)]SCG-NH2; thioether N-17; not fully specified) [compound 38],A (showed an inhibitory activity of 50% or more in a zone to which the peptide was added to in an amount of 0.2 nM),ND (the inhibitory activity was less than 30% at the maximum concentration evaluated),,
39 ({CH2CO}-AQVYVDK[Bip]PYP[Bip]Y[Phe(4-COOH)][Phe(4-COOH)]SCG-NH2; thioether N-17; not fully specified) [compound 39],C (showed an inhibitory activity of less than 50% in 0.2 nM-addition zone and showed an inhibitory activity of 50% or more in 2 nM-addition zone were defined as B or C),ND (the inhibitory activity was less than 30% at the maximum concentration evaluated),,
40 ({CH2CO}-ASVYVDK[Bip]PYP[Bip]Y[Phe(4-COOH)][Phe(4-COOH)]SCG-NH2; thioether N-17; not fully specified) [compound 40],D (showed inhibitory activity of less than 50% in 2 nM-addition zone),ND (the inhibitory activity was less than 30% at the maximum concentration evaluated),,
41 ({CH2CO}-A[Tic]VYVDK[Bip]PYP[Bip]Y[Phe(4-COOH)][Phe(4-COOH)]SCG-NH2; thioether N-17) [compound 41],,,C (showed an inhibitory activity of less than 50% in 0.2 nM-addition zone and showed an inhibitory activity of 50% or more in 2 nM-addition zone were defined as B or C),ND (the inhibitory activity was less than 30% at the maximum concentration evaluated)
42 (Ac-AKVYVDK(Ac)[Bip]PYP[Bip]Y[Phe(4-COOH)][Phe(4-COOH)]SCG-NH2; thioether (positions not given here); not fully specified (bridges)) [compound 42],,,A (showed an inhibitory activity of 50% or more in a zone to which the peptide was added to in an amount of 0.2 nM),ND (the inhibitory activity was less than 30% at the maximum concentration evaluated)
43 (Ac-AKVYVD[4Pal][Bip]PYP[Bip]Y[Phe(4-COOH)][Phe(4-COOH)]SCG-NH2; thioether (positions not given here); not fully specified (bridges)) [compound 43],,,C (showed an inhibitory activity of less than 50% in 0.2 nM-addition zone and showed an inhibitory activity of 50% or more in 2 nM-addition zone were defined as B or C),ND (the inhibitory activity was less than 30% at the maximum concentration evaluated)
45 (Ac-AK(X8)VYVK(X8)K[Bip]PYP[Bip]Y[Phe(4-COOH)][Phe(4-COOH)]SCG-NH2; thioether (positions not given here); not fully specified (bridges)) [compound 45],,,A (showed an inhibitory activity of 50% or more in a zone to which the peptide was added to in an amount of 0.2 nM),ND (the inhibitory activity was less than 30% at the maximum concentration evaluated)
46 (ARVYVDR[Bip]PYP[Bip]Y[Phe(4-COOH)][Phe(4-COOH)]SC) [compound 46],,,A (showed an inhibitory activity of 50% or more in a zone to which the peptide was added to in an amount of 0.2 nM),ND (the inhibitory activity was less than 30% at the maximum concentration evaluated)
47 (Ac-ARVYVDR[Bip]PYP[Bip]Y[Phe(4-COOH)][Phe(4-COOH)]SC[βAla][dE]-OH; thioether (positions not given here); not fully specified (bridges)) [compound 47],,,A (showed an inhibitory activity of 50% or more in a zone to which the peptide was added to in an amount of 0.2 nM),ND (the inhibitory activity was less than 30% at the maximum concentration evaluated)
48 (Ac-ARVYVDR[Bip]PYP[Bip]Y[Phe(4-COOH)][Phe(4-COOH)]SC[βAla]K-NH2; thioether (positions not given here); not fully specified (bridges)) [compound 48],,,C (showed an inhibitory activity of less than 50% in 0.2 nM-addition zone and showed an inhibitory activity of 50% or more in 2 nM-addition zone were defined as B or C),ND (the inhibitory activity was less than 30% at the maximum concentration evaluated)
49 (Ac-ARVYVDR[Bip]PYP[Bip]Y[Phe(4-COOH)][Phe(4-COOH)]SC[βAla]-PEG12Me; thioether (positions not given here); not fully specified (bridges)) [compound 49],,,C (showed an inhibitory activity of less than 50% in 0.2 nM-addition zone and showed an inhibitory activity of 50% or more in 2 nM-addition zone were defined as B or C),ND (the inhibitory activity was less than 30% at the maximum concentration evaluated)
